According to patent US7629135B2, “Toll-like receptor agonists and antagonists and methods of use thereof” (The Board of Trustees of the University of Illinois, priority 2006, dated 2009):

What was measured:
NF-κB = assay: Electrophoresis mobility shift assay (EMSA) with BMDM nuclear extracts; assay type: cell-based, mouse; conditions: SAA-stimulated BMDM, after 30 min
Method: To investigate the mechanism for SAA-induced G-CSF production, the level of G-CSF transcript in SAA-stimulated BMDM was determined. […] The induction of G-CSF transcript peaked at 4 h after SAA stimulation. Since transcription of the G-CSF gene involves NF-κB binding to the RelA/p65 consensus element in the CK-1 site of the G-CSF promoter (Dunn et al., 1994; Hareng and Hartung, 2002), the role of NF-κB in SAA-stimulated G-CSF expression was determined. […] Using oligonucleotide probe based on the sequence of the CK-1 site (−161 to −152 in the G-CSF promoter), a protein •DNA complex (FIG. 2C) was identified. […] Inclusion of a RelA/p65 antibody blocking peptide in the assay abrogated the immunoprecipitation (FIG. 2D).
EMSA: Nuclear extracts were isolated using the method of Dignam et al (Dignam et al., 1983) with minor modifications. For each sample, 5×10^6 cells were used. Radiolabeling of the NF-κB probe and CK-1 probe, binding reactions, electrophoresis, and autoradiography were conducted as described previously (He et al., 2003).

C57BL/6 mice = assay: Plasma G-CSF in SAA-injected mice (ELISA); assay type: in vivo, mouse
Method: SAA stimulates neutrophilia through G-CSF: To investigate whether SAA-induced G-CSF secretion contributes to neutrophilia, in vivo studies were conducted with daily administration of SAA in mice. C57BL/6 mice were injected subcutaneously (s.c.) with a daily dose of 120 μg SAA/kg body weight (˜3 μg of SAA each mouse) for 7 consecutive days. At different time points after the injection was initiated, blood neutrophil numbers were determined and the results were compared to neutrophil numbers prior to SAA administration. […] To establish a causal relationship between SAA-induced G-CSF production and neutrophilia in mice, wild-type C57BL/6 mice wre compared with csf3^−/− mice for changes in neutrophil count.
Measurement of G-CSF expression: To measure the secreted G-CSF from human monocytes and mouse macrophages in vitro, cells were placed in serum-free DMEM medium and stimulated with the indicated ligands. Cell-free supernatants were collected by centrifugation at 1,000×g for 30 sec and assayed for human or mouse G-CSF using ELISA. Human PBMC were used as 2×10^6 cells/ml/sample, and mouse BMDM were seeded at 10^6 cells/ml and used as 0.5 ml/sample. To measure mouse plasma G-CSF, blood samples were collected and centrifuged at 1,000-2,000×g for 10 min at 4° C. Plasma samples were appropriately diluted and then checked for G-CSF concentration using ELISA. […] Real-time quantitative PCR was performed on a ABI PRISM 7000 Sequence Detection System (Applied Biosystems) as described previously (He et al., 2006). All data were analyzed with the ABI PRISM 7000 SDS software (version 1.1). Relative level of mRNA for G-CSF was determined by normalizing with β-actin mRNA level. […]
SAA-induced neutrophilia: For analysis of SAA-induced neutrophil increase, SAA was injected subcutaneously into both G-CSF deficient (csf3^−/−) (n=5) and csf3^+/+ (n=5), age- and sex-matched littermates (8-9 weeks, male), at doses of 120 μg/kg/d in 200 μl PBS. […] Total white blood cell (WBC) count and WBC differential count were determined using a Hemavet 950FS multispecies hematology analyzer (Drew Scientific).

B1: SAA: Recombinant human SAA purchased from PeproTech; major acute-phase protein of 104 amino acids (protein, UniProt P0DJI8 19-122, looked up)
Serum amyloid A-1 protein: RSFFSFLGEAFDGARDMWRAYSDMREANYIGSDKYFHARGNYDAAKRGPGGAWAAEVITDARENIQRFFGHGAEDSLADQAANEWGRSGKDPNHFRPAGLPEKY
NF-κB
  formation of NF-κB•DNA complex: stimulated the formation of NF-κB•DNA complex
C57BL/6 mice; C57BL/6 mice, SAA 120 μg/kg s.c. daily, end of 7 days
  plasma G-CSF level: significantly elevated G-CSF level
C57BL/6 mice; SAA s.c. up to 7 days, 168 h
  plasma G-CSF in tlr2−/− mice vs wild-type: significantly less G-CSF
C57BL/6 mice; SAA-injected C57BL/6 mice, 168 h
  plasma concentration of G-CSF, maximum: 97 pg/mL
